Laboratory results published in patent publication US20250215104A1 (WALDEN BIOSCIENCES, published 2025).
Where a chain is given by its changes, count along the chain named.

B1: suPAR_DB02_F03 (scFv, V domains shown)
VH: QVQLVQSGAEVKKPGASVKVSCKASGYTFTSYYVHWVRQAPGQGLEWMGWIDPEGGSTIYDQKFQGRVTMTRDTSTSTVYMELSSLRSEDTAVYYCARGYDVDWFVYWGQGTLVTVSS
VL: DIQMTQSPSSLSASVGDRVTITCSARSSVSYMYWYQQKPGKAPKLLIYRTSSLQSGVPSRFSGSGSGTDFTLTISSLQPEDFATYYCQQYHSYPPTFGGGTKVEIK
notes: scFv clone from phage display
B2: suPAR_DB02_G04 (scFv, V domains shown)
VH: B1 VH with Y27H, S31G, V34I, P53H, G55N, S57N
VL: B1 VL with S52N, Q54A
notes: scFv clone from phage display
B3: suPAR_DB02_G08 (scFv, V domains shown)
VH: B1 VH with Y27D, V34M, P53H, S57N, I59S, D61E
VL: B1 VL with S52N, Q54A
notes: scFv clone from phage display
B4: suPAR_DB02_H03 (scFv, V domains shown)
VH: B1 VH with S31T, V34M
VL: B1 VL with S52N, Q54A
notes: scFv clone from phage display
B5: suPAR_DB02_G01 (scFv, V domains shown)
VH: B1 VH with Y27H, S31D, V34M, D52S, E54N, G55S, S57G, I59N, D61A
VL: B1 VL with S52N, Q54A
notes: scFv clone from phage display
B6: suPAR_DB02_H05 (scFv, V domains shown)
VH: B1 VH with T28F, S31A, V34M, G55N, S57N
VL: B1 VL with S52N, Q54A
notes: scFv clone from phage display
B7: suPAR_DB02_G06 (scFv, V domains shown)
VH: B1 VH with S31N, V34M, P53H, D61A
VL: B1 VL with V29I, S52N, Q54A
notes: scFv clone from phage display
B8: suPAR_DB02_G02 (scFv, V domains shown)
VH: B1 VH with S31R, V34M, P53H, G55N, D61A
VL: B1 VL
notes: scFv clone from phage display
B9: suPAR_DB02_G07 (scFv, V domains shown)
VH: B1 VH with V34M, G55N
VL: B1 VL with R26S, S27Q, S52N, Q54A
notes: scFv clone from phage display
B10: suPAR_DB02_H01 (scFv, V domains shown)
VH: B1 VH with S31G, Y32Q, V34I, P53H, E54S, R98G
VL: B1 VL with Q54A
notes: scFv clone from phage display
B11: suPAR_DB02_F10 (scFv, V domains shown)
VH: B1 VH with S31T, V34M, S57N, I59S
VL: B1 VL with S52N, Q54A
notes: scFv clone from phage display
B12: suPAR_DB02_E12 (scFv, V domains shown)
VH: B1 VH with Y32N, V34M, P53H, G55N, S57N
VL: B1 VL with R26S, S27Q, S52N, Q54A
notes: scFv clone from phage display
B13: suPAR_DB02_F02 (scFv, V domains shown)
VH: B1 VH with S31D, V34M, G55N, S57N
VL: B1 VL with S52N
notes: scFv clone from phage display
B14: suPAR_DB02_F05 (scFv, V domains shown)
VH: B1 VH with S31G, Y32N, V34M, H35Q, P53H, G55N, S57N
VL: B1 VL with S52N, Q54A
notes: scFv clone from phage display
B15: suPAR_DB02_G03 (scFv, V domains shown)
VH: B1 VH with V34M, G55N, S57N
VL: B1 VL with R26S, S27Q, S52N, Q54A
notes: scFv clone from phage display
B16: suPAR_DB02_E10 (scFv, V domains shown)
VH: B1 VH with S31N, Y33F, V34M, P53H, G55N, S57N
VL: B1 VL with S52N, Q54A
notes: scFv clone from phage display
B17: suPAR_DB02_G12 (scFv, V domains shown)
VH: B1 VH with Y27F, T28N, F29I, T30K, S31D, V34I, G55N
VL: B1 VL with R26S
notes: scFv clone from phage display
B18: suPAR_DB06_F07 (scFv, V domains shown)
VH: B1 VH with S31N, V34M, P53H, G55N, S57N
VL: B1 VL with S52N, Q54A
B19: suPAR_DB06_D11 (scFv, V domains shown)
VH: B1 VH with T30A, S31N, M48V, W50M, E54G, S57T, I59N, D61A
VL: B1 VL with S24R, S27Q, S52N, Q54A
B20: suPAR_DB06_E03 (scFv, V domains shown)
VH: B1 VH with Y27F, T28N, F29I, T30K, S31D, V34I, G55N, S57N, I59S
VL: B1 VL with S52N, Q54A
B21: suPAR_DB06_D05 (scFv, V domains shown)
VH: B1 VH with Y27G, S31G, V34M, E54S, S57N
VL: B1 VL with S27Q, S52N, Q54A
B22: suPAR_DB06_C01 (scFv, V domains shown)
VH: B1 VH with S31G, V34M, E54S, G55N, S57N
VL: B1 VL with S27Q, V29I, S52N, Q54A
B23: suPAR_DB06_B10 (scFv, V domains shown)
VH: B1 VH with Y27D, F29L, S31N, V34M, P53H, G55N, D61A
VL: B1 VL with S52N, S55T
B24: suPAR_DB06_C10 (scFv, V domains shown)
VH: B1 VH with T30S, S31A, V34M, E54S, G55N, S57N
VL: B1 VL with S52N, Q54A
B25: suPAR_DB06_D12 (scFv, V domains shown)
VH: B1 VH with Y27G, T30S, V34M, G55N, S57N, D61A
VL: B1 VL with S27Q, Q54A
B26: suPAR_DB06_D06 (scFv, V domains shown)
VH: B1 VH with S31N, V34M, G55N, S57N, D61A
VL: B1 VL with S52N, Q54A
B27: suPAR_DB06_C11 (scFv, V domains shown)
VH: B1 VH with S31N, V34M, P53H, G55N, S57N
VL: B1 VL with S27Q, S52N, Q54A
B28: suPAR_DB06_E04 (scFv, V domains shown)
VH: B1 VH with Y27D, T30S, V34M, P53H, G55N, S57N, V102M
VL: B1 VL with S24R, S52N
B29: suPAR_DB06_C06 (scFv, V domains shown)
VH: B1 VH with T30S, S31N, V34M, P53H, S57N, I59S, D61A
VL: B1 VL with S52N, Q54A
B30: suPAR_DB06_D10 (scFv, V domains shown)
VH: B1 VH with V34M, G55N, S57N, D61A
VL: B1 VL with S52N, Q54A
B31: suPAR_DB06_C12 (scFv, V domains shown)
VH: B1 VH with T28S, S31A, Y32N, V34I, P53H, G55N, S57N, R98N
VL: B1 VL with S52N, Q54A
B32: suPAR_DB06_C03 (scFv, V domains shown)
VH: B1 VH with V34M, E54N, G55S, S57G, I59N, D61A
VL: B1 VL with S52N, Q54A
B33: suPAR_DB06_D09 (scFv, V domains shown)
VH: B1 VH with Y27G, V34M, P53H, G55N, D61A
VL: B1 VL with R26S, S52N, Q54A
B34: suPAR_DB06_D02 (scFv, V domains shown)
VH: B1 VH with Y32N, V34M, P53H, G55N, S57N
VL: B1 VL with R26S, S52N, Q54A
B35: suPAR_DB06_B11 (scFv, V domains shown)
VH: B1 VH with Y32N, V34I, P53H, G55N, S57N, R98E
VL: B1 VL with S24R, S27Q, S52N, Q54A
B36: suPAR_DB06_E02 (scFv, V domains shown)
VH: B1 VH with T28S, S31N, V34M, P53H, G55N, S57N
VL: B1 VL with S52N, Q54A
B37: suPAR_DB06_C09 (scFv, V domains shown)
VH: B1 VH with V34M, G55N, S57N
VL: B1 VL with S24R, S52N, Q54A
B38: suPAR_DB06_B12 (scFv, V domains shown)
VH: B1 VH with S31N, V34M, S57N
VL: B1 VL with S52N, Q54A
B39: suPAR_DB06_C07 (scFv, V domains shown)
VH: B1 VH with S31N, V34M, E54N, S57G, I59Q, D61A
VL: B1 VL with S52N, Q54A
B40: suPAR_DB06_D07 (scFv, V domains shown)
VH: B1 VH with S31N, V34M, P53H, S57N, D61A
VL: B1 VL with S52N, Q54A
B41: suPAR_DB06_D08 (scFv, V domains shown)
VH: B1 VH with S31N, V34M, S57N, I59S
VL: B1 VL with S52N, Q54A

Molecular target: T1, cynomolgus soluble urokinase plasminogen activator receptor (suPAR) (cynomolgus, UniProt Q9GK78 23-303, limits assumed)
T1 construct: Column head says only 'cynomologus'; also called cynomolgus suPAR; cynomolgus uPAR
Assay: BLI (Octet) off-rate screen of scFv clones
Target sequence in this assay (Q9GK78 23-303 limits assumed): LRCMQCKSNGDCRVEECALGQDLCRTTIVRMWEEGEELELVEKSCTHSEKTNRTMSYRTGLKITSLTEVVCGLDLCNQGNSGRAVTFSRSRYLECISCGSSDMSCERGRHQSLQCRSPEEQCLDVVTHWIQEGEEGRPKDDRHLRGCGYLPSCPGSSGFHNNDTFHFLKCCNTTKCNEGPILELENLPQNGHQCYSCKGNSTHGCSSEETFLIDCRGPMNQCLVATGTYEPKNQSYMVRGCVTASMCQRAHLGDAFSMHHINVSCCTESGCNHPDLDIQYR

| Binder | koff |
| --- | --- |
| B1 | 0.000492 s⁻¹ |
| B2 | 9.86e-05 s⁻¹ |
| B3 | 0.000103 s⁻¹ |
| B4 | 0.000524 s⁻¹ |
| B5 | 5.19e-05 s⁻¹ |
| B6 | 0.00021 s⁻¹ |
| B7 | 0.000132 s⁻¹ |
| B8 | 0.000125 s⁻¹ |
| B9 | 0.000286 s⁻¹ |
| B10 | 0.000218 s⁻¹ |
| B11 | 0.000375 s⁻¹ |
| B12 | 0.000215 s⁻¹ |
| B13 | 0.00048 s⁻¹ |
| B14 | 0.000161 s⁻¹ |
| B15 | 0.00025 s⁻¹ |
| B16 | 0.000189 s⁻¹ |
| B17 | 0.000584 s⁻¹ |

Molecular target: T2, human soluble urokinase plasminogen activator receptor (suPAR) (human, UniProt Q03405 23-303, limits assumed)
T2 construct: Column head says only 'human'; also called human suPAR; hsuPAR
Assay: BLI (Octet) off-rate screen of scFv clones
T2 sequence (Q03405 23-303 limits assumed): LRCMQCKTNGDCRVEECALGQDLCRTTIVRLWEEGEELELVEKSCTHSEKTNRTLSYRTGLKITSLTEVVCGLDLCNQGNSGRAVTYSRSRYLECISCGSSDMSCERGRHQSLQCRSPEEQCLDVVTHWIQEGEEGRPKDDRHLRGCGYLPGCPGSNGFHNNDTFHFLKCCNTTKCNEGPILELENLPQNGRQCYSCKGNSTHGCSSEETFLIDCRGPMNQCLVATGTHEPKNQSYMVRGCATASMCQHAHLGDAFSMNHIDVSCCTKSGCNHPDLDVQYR

| Binder | koff |
| --- | --- |
| B1 | 0.00504 s⁻¹ |
| B2 | 0.00448 s⁻¹ |
| B3 | 0.00395 s⁻¹ |
| B4 | 0.00594 s⁻¹ |
| B5 | 0.00438 s⁻¹ |
| B6 | 0.00442 s⁻¹ |
| B7 | 0.00137 s⁻¹ |
| B8 | 0.00242 s⁻¹ |
| B9 | 0.00367 s⁻¹ |
| B10 | 0.00315 s⁻¹ |
| B11 | 0.00106 s⁻¹ |
| B12 | 0.00675 s⁻¹ |
| B13 | 0.00179 s⁻¹ |
| B14 | 0.00613 s⁻¹ |
| B15 | 0.00346 s⁻¹ |
| B16 | 0.00552 s⁻¹ |
| B17 | 0.00371 s⁻¹ |

Molecular target: T3, cynomolgus soluble urokinase plasminogen activator receptor (suPAR) (cynomolgus, UniProt Q9GK78 23-303, limits assumed)
T3 construct: Target antigen of the scFv off-rate screen; also called cynomolgus suPAR; cynomolgus uPAR
Assay: BLI (Octet) off-rate screen of scFv clones
Target sequence in this assay (Q9GK78 23-303 limits assumed): as the sequence (Q9GK78 23-303 limits assumed) above

| Binder | koff |
| --- | --- |
| B18 | 0.000455 s⁻¹ |
| B19 | 0.000439 s⁻¹ |
| B20 | 0.00037 s⁻¹ |
| B21 | 0.000222 s⁻¹ |
| B22 | 1.49e-05 s⁻¹ |
| B23 | 0.000587 s⁻¹ |
| B24 | 0.00048 s⁻¹ |
| B25 | 0.000189 s⁻¹ |
| B26 | 0.000261 s⁻¹ |
| B27 | 0.000631 s⁻¹ |
| B28 | 0.000388 s⁻¹ |
| B29 | 0.00025 s⁻¹ |
| B30 | 0.000365 s⁻¹ |
| B31 | 7.52e-05 s⁻¹ |
| B32 | 0.000332 s⁻¹ |
| B33 | 0.000341 s⁻¹ |
| B34 | 0.00023 s⁻¹ |
| B35 | 0.000128 s⁻¹ |
| B36 | 0.000589 s⁻¹ |
| B37 | 0.000566 s⁻¹ |
| B38 | 0.000293 s⁻¹ |
| B39 | 0.000387 s⁻¹ |
| B40 | 0.000565 s⁻¹ |
| B41 | 0.000715 s⁻¹ |

Molecular target: T4, human soluble urokinase plasminogen activator receptor (suPAR) (human, UniProt Q03405 23-303, limits assumed)
T4 construct: Target antigen of the scFv off-rate screen; also called hsuPAR; human suPAR
Assay: BLI (Octet) off-rate screen of scFv clones
T4 sequence (Q03405 23-303 limits assumed): as the sequence (Q03405 23-303 limits assumed) above

| Binder | koff |
| --- | --- |
| B18 | 0.00402 s⁻¹ |
| B19 | 0.0021 s⁻¹ |
| B20 | 0.00201 s⁻¹ |
| B21 | 0.00558 s⁻¹ |
| B22 | 0.00233 s⁻¹ |
| B23 | 0.00141 s⁻¹ |
| B24 | 0.00599 s⁻¹ |
| B25 | 0.00515 s⁻¹ |
| B26 | 0.00406 s⁻¹ |
| B27 | 0.00201 s⁻¹ |
| B28 | 0.00541 s⁻¹ |
| B29 | 0.00311 s⁻¹ |
| B30 | 0.00425 s⁻¹ |
| B31 | 0.00484 s⁻¹ |
| B32 | 0.00347 s⁻¹ |
| B33 | 0.00149 s⁻¹ |
| B34 | 0.00422 s⁻¹ |
| B35 | 0.00489 s⁻¹ |
| B36 | 0.00189 s⁻¹ |
| B37 | 0.00382 s⁻¹ |
| B38 | 0.00203 s⁻¹ |
| B39 | 0.00495 s⁻¹ |
| B40 | 0.00244 s⁻¹ |
| B41 | 0.00166 s⁻¹ |
